Assay results as given in the DeepSol protein solubility set.

Experiment: soluble on expression in E. coli; label from the status in PepcDB or PDB records

Sequence	soluble on expression in E. coli
MKETDLRVIKTKKALSSSLLQLLEQQLFQTITVNQICDNALVHRTTFYKHFYDKYDLLEYLFNQLTKDYFARDISDRLNHPFQTMSDTINNKEDLREIAEFQEEDAEFNKVLKNVCIKIMHNDIKNNRDRIDIDSDIPDNLIFYIYDSLIEGFIHWIKDEKIDWPGEDIDNIFHRLINIKIK	soluble
MDHRSSSPFLQILPPDEVEKLLHSMKQAKEELETLGNGDESLFLCPQKITHCSTVSWKPNNVLAPALPKQNALNFNGNEQLSHENEAHSEIPSLLTFQEKGEEDTVEVTRDNYNEIDTVEDFRSIEPALENSPKILVDDSMEATQTFIEETNDFQNDTVHSLDGTLEIENRRLCLLGMLVEMKEICKSVKVDLLLNLIPDLAPVAVQACNSASSLSRKEAIYCLVYMVKQVGAEEMEKYLEPLTTAKRTLLQIYIDRSSKDDSK	not soluble
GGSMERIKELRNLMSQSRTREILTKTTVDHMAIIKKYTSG	soluble
MRAFKAHLRGLSPYPYKKEEAPVKLDQNESPFDLPGALKEEALGRLRAIPWNRYPEIHAESLRKRLSALLDWPEEGIVLAPGSNLLILALSLAAEEVLDLRPSFPHYAHAAKVAGTPYRAVPLGEGFSLDLKALLAAFRGGVLFLPNPHAPTGALFPEEALRALAERAKEVGGLLVVDEAYREFAGTDFRFLARENPHVALLRTFSKAFSLGGVRAGYLLGSPEVAGVVREVLPPFVLPAHTGAVLEVVLENPGYVEKVVEEVVAQRERVYRELLAHPTWRPYPSRTNFLLVRTPDAEEAFRHLLSQGVLVRRQDRYPGLAGCLRVTVGRREEMDAFLRAAFGVAYA	soluble
MKILPLALFIIPFLAGCGANNTPPQTPIPGEKTSAKLRTLETGAAAIQSRPPVDAISTYLDGFHFYSGDKNGQMEAHHYVTVLNEDVMQAVIYDGNTKNARLMGVEYIISERLFKTLPPEEKKLWHSHQYEVKSGSLVAPGLPQVADKALMSKIVNTYGKTWHTWHTDRDKTLPMGIPALMMGFTGDGQLDPALLADRDRRLGIDTQAIKRERQDLPEHPVVKGANAWEQGEVIQLQRVQGSGEHGRGDTAHFGTSEQSRQ	not soluble
MPREYDNLICYKQLSIDDHGKLKFFLEKHSTKEGTWGKLSLSEGEIDFIFQNGLGQELSRIRLDKNNRQLSIPPASWHKIIPISASFNAQLGFYCKPHRYFNKKYGLTEVHRDLLYVYHTYLSHLGSLTTLDVGCGSGRNLLYLTQLGHIVTGIDINQTALENIQIIAQKENLSLLNILSQDLNQPQALAPDHYDFVCSTVTLQFLNASRIPSLLIELQEATKKNGYHFLVFPVQSELYSLPSSFTFLPKQEELYHFYQDSGWSILEYKESVGHLHKQDEMGRPVQGLFALLLAQKVLLEHHHHHH	not soluble
MYETIVSSRGSSFFVSQGKTGEQVYRCQVNREQCPNTLPIDKHIDLVRKYIRAFLYRFAGMTSLNETSSRRMIFLVVPSFCVIEIIP	not soluble
MEGFGMPKLIISGRGGSGKSTLVTLIAHTLKEQKKRVLVVDSDESNIGLSGILGIEPAEKTLMDYLGGKPRVMKKLRSMIRDGETEPELFREKFDLESLSQEFVCWVGSLGLMQIGKIDHAMEGCACPMGAVTRDFLNHVRLEEDQWVLVDTEAGVEHFGRGIVEGADAVVMVVDPSSDAVLLAEKAAKLTHEADKRFGVILNKIDEETEPILTELLTSEGNEIKGVLPYSPAITKMNLKGESLGAYAVKNEVDEIIRELMKCLEHHHHHH	not soluble
MSRIEQLISDIESYIDNCKYYPLSNVKIIVNKEQLEDMLTELRLKTPDEVKKYQKILSNKDAILADAKEQADAIINAAQIQTEELINEHEIMQRAYAQANELIEQATAQAQTILDNATEEANSIRYGAMQYTDDMLAKLQYIIEHSIKDNKEKYDSLLSGLENVLSVVNNNRNELSGIEENSTEESADTDASNETDSQSDDEE	not soluble
MARFLLIIGCATLAALASCESKSGEETPQYWRAILGDICQLPSFPRATGDPTRYVECVRQSSFAADRKDLGIWLLRECLPGYEFVASARRCKTVRSVNKQQELCESANATEYNFCPTASAMQFLVEETREAPRQCACPNGEQNCVCPSPEILEPISAVKKVRRSAQQQPLRFSQYPSCPCPQNQPACTCSTNNQQNEQILVSISCCQQQETTTQAPVQMQPCQCTPTQIQQNCQTTTTQQQYCPQQSAPVVQPQPCPLVQGSGVQNAQYQGICSWMIDPLATDPQSRTHYLQCQPAPNNLFCGRWQRMPCAPGTVFDVQSQVCVWDTNSQPGTLPTPAPYVSTQAPQNAQCGCTGGVQIGSCNQNYQCPGQSVCQVGQNAGQQCMVCCYFRKKARRF	not soluble
SLDSIELMAKIHASARWSEAALQILADETRRILKHEAGTRAGEDPEQLHQMRVGIRRLRSALRLFEPALKLPKPARRRSLSPLAAVLGSVRDLDVQMEMLRERYLGALPEGEQQALERLLAHLESLRTQARSAMLRYLDGLDYEQFKSAYTEFLESPKFRRGADESLYHLLPAFLREALSTLWAHPGWEEPDVETMHDLRIAVKRVRYNLEFFLGCYGKAVRSLHGELKRIQEELGIIHDCDVLLGQLHTEPLGPATPWQQPFSRLTALVRNERRNAVRRFRRLKTRLLSEDMRNSLAVWVSWPGTADD	soluble
PSVQVTDGQINGESVRFIAVVPDANNHYPRAAGGEVGLLEGWTLAKVVNETIAADADRPVKRPIVAVIDVPSQAYGRREEAFGIHQALAGAAGAYAKARLAGHPVIGLIVGKAMSGAFLAHGYQANRLIAFNDSGVLVHAMGKASAARITLRTVEALEKLAATIPPMAY	not soluble
MGSDKIHHHHHHMTKLHYIRNKDCNMKEGLKLNKGKLIAQGKTSEVFEYGQDKILKLFRKDLPEKNIENEYEVSFNLSKKMKLVPKVYDLVEVDDRKGIIYEKVNGTTMMEVISSKPWKVKKEAQRLAELHEAIQKPVDFELPDYKTTLKENISKTELLEEDIKKRLYDYIDELKDDDLLCHGDFHPDNVLITEEGEVIIDWMTASKGSRIADIARTSVMLKFGASPVKRSAEKKIIKFVRNRFYSGYIKHYMKITGINKEQIEEWELPIAAARLNEWLPKSEKVDLLKFIDMKMK	not soluble
MGSDKIHHHHHHMTPSNVNSAGYKVIKISEFLSKKEYLDKKLVIPVYQRPYRWTAKNIVDLLSDLYYQCKRIGHRLGSPDNPDNFYRLGTVVLHQYVNNGSHQTNADLVDGQQRTLTLLLIMKSALESNRFTEQFNSFTPLEIELPDCSETQQNLSRNYELIRRHVNSPEFTSEVLDFLLNHCEVVQVTLHYLSEAFQFFDSQNARGLDLNPHDLLKAFHLREFPDSESLLKQNIVECWEQQNTKSLEVLFANYLYPIRRWSFGKQAVHFSKSEVNVFKGMKLDSDSYPFQENLRIVHNTVDSYNHHSHRLLDQQAMAYPFQLTQTLINGRRFFEWVTHYQEMIQPLLNKTIDSDSQKWLYTITSCHHTETGTSIKEVAKRPTAFNIFLVLNTDLPEYSYKGRSRRGDQYVRRMFDALVLCYYDRFGSHNLPRAIEYIFIWAYSLRLEKKSVYLESIEKHIGTDNLFERLQQSLSSVDFLSKPLPQPKKVDVTNVEGIKELFTKLGYLPT	not soluble
GAMDPEFQQSKVAPSSAASRPVLSSRSDQSQKNEVFLDVVERLSVLIASNGSLLKVDVQGEIRLKSFLPSGSEMRIGLTEEFSVGKSELRGYGPGIRVDEVSFHSSVNLDEFESHRILRLQPPQGELTVMRYQLSDDLPSPLPFRLFPSVQWDRGSGRLQVYLKLRCDLLSKSQALNVRLHLPLPRGVVSLSQELSSPEQKAELAEGALRWDLPRVQGGSQLSGLFQMDVPGPPGPPSHGLSTSASPLGLGPASLSFELPRHTCSGLQVRFLRLAFRPSGNANPHKWVRHLSHSDAYVIRI	soluble
MSLQLRSRAAFKLEFLLDRYRVVRKGDAVIEIGSSPGGWTQVLNSLARKIISIDLQEMEEIAGVRFIRCDIFKETIFDDIDRALREEGIEKVDDVVSDAMAKVSGIPSRDHAVSYQIGQRVMEIAVRYLRNGGNVLLKQFQGDMTNDFIAIWRKNFSSYKISKPPASRGSSSEIYIMFFGFKAEGHHHHHH	soluble
MRYLELAQLYQKLEKTTMKLIKTRLVADFLKKVPDDHLEFIPYLILGEVFPEWDERELGVGEKLLIKAVAMATGIDAKEIEESVKDTGDLGESIALAVKKKKQKSFFSQPLTIKRVYQTLVKVAETTGEGSQDKKVKYLADLFMDAEPLEAKYLARTILGTMRTGVAEGLLRDAIAMAFHVKVELVERAYMLTSDFGYVAKIAKLEGNEGLAKVQVQLGKPIKPMLAQQAASIRDALLEMGGEAEFEIKYDGARVQVHKDGSKIIVYSRRLENVTRAIPEIVEALKEAIIPEKAIVEGELVAIGENGRPLPFQYVLRRFRRKHNIEEMMEKIPLELNLFDVLYVDGQSLIDTKFIDRRRTLEEIIKQNEKIKVAENLITKKVEEAEAFYKRALEMGHEGLMAKRLDAVYEPGNRGKKWLKIKPTMENLDLVIIGAEWGEGRRAHLFGSFILGAYDPETGEFLEVGKVGSGFTDDDLVEFTKMLKPLIIKEEGKRVWLQPKVVIEVTYQEIQKSPKYRSGFALRFPRFVALRDDKGPEDADTIERIAQLYELQEKMKGKVES	soluble
MMGSAYWEKLVPQINPPKVPSAVEGLGIPASVVENLVLKHLAAYPKCDLVELTQRLCVVSNIVELALAQLRKRSWVEVYQPASDKLSHSYSNVRYSLTEFGLAEADIAYRKDPYIGPVPVSLEDYWTVVEGQDLRKNPIMRADVERALSDVFGSEHLIPVLGPAINSGRAMLLYGHAGTGKSYVAAR	not soluble
SNAMKVINVDVAIIGTGTAGMGAYRAAKKHTDKVVLIEGGAYGTTCARVGCMPSKLLIAAADASYHASQTDLFGIQVDRISVNGKAVMKRIQTERDRFVGFVVESVESFDEQDKIRGFAKFLDEHTLQVDDHSQVIAKRIVIATGSRPNYPEFLAAAGSRLLTNDNLFELNDLPKSVAVFGPGVIGLELGQALSRLGVIVKVFGRSGSVANLQDEEMKRYAEKTFNEEFYFDAKARVISTIEKEDAVEVIYFDKSGQKTTESFQYVLAATGRKANVDKLGLENTSIELDKKNSPLFDELTLQTSVDHIFVAGDANNTLTLLHEAADDGKVAGTNAGAYPVIAQGQRRAPLSVVFTEPQVASVGLSLRQIEDLYADQDAANYVVGQVSFEGQGRSRVMGKNKGLLNVYADRTSGEFLGAEMFGPAAEHIGHLLAWARQQQMTVQAMLTMPFYHPVIEEGLRTALRDAQQKLAIEKHDMNEFIMTHDNAMKLVI	soluble
MNKLSRTDEENRQTEFSSSPLSDSVHSCLGFNRKKERKRRTSGDIEQTDKRKRTEERPSDKITFASNVFDNLARVTAERDNPEKLSKYKNIPGVGTRENIDEGISDINQPSSKSSGVKSKYVEVMSLFQKSIQKFSIMNLDYMYTFDWNHYSKKNIQYVVFTKVCQSHAPGHFVEMLKEDCSCRDCGSADLAVKVRLTVPLDLSDIPIPCSEDIQIHVSFLADDLLERHISSNVNRSSNRDDLDFSRRTCEKMYDLYQKMMRGQSSRMYTEWFDKCKIFVKNFLFSKSLHLYHGNVIRRKIEESQTLNKRRCFIFAQIFDLE	not soluble
MGSDKIHHHHHHMGSQLFVRNGRKMQLTESGKKLYIATHKAFDTLLKGFNSIQTEDVAGTLTITSTQAFTSLWLMPRLYKFSIKHPEIKVKVVSSNGLEDLRRGHIDLAIRFITNKEVDTSDDMTYEFIAEDHVYPACSPQLMKEYNFKEPQDVLKCWLVSLENQGSIDWRTWFKEAGVENYQCHKKWTEVSSGDMALSAVLSGHGFTLASQALFSQYVITGQLVIPFNIKHPISFKRYFVFDPNSAKKERVNVFTTWLKEETLQDEKSTLEAISYGSL	not soluble
